Measured values taken from US20250206795.

System: T1, Mouse proBDNF-G-CSF-Tr protein
T1 sequence: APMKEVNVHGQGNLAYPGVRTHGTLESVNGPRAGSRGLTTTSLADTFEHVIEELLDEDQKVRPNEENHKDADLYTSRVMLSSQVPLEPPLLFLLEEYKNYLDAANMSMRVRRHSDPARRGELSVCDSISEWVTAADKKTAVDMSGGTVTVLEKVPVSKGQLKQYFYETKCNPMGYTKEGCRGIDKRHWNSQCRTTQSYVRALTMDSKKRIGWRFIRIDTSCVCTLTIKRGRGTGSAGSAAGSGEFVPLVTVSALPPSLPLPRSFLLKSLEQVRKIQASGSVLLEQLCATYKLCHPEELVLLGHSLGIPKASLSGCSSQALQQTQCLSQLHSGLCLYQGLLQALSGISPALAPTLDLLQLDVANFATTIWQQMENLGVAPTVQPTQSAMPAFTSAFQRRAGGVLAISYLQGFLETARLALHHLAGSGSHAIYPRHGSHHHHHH

Substance: furin
- enzymatic cleavage (SDS PAGE and Western blot with anti-4-His antibodies), 1 Unit furin, 30 C, 4 hours: furin effectively cleaved the proBDNF-G-CSF-Tr molecule to yield BDNF-G-CSF-Tr
